# Experimental data: IntAct's records for PubMed 22949673
# B1: 5-cytosine rRNA methyltransferase NSUN4 (Homo sapiens), Q96CB9-1 (parent)
# chain: MAALTLRGVRELLKRVDLATVPRRHRYKKKWAATEPKFPAVRLALQNFDMTYSVQFGDLWPSIRVSLLSEQKYGALVNNFAAWDHVSAKLEQLSAKDFVNEAISHWELQSEGGQSAAPSPASWACSPNLRCFTFDRGDISRFPPARPGSLGVMEYYLMDAASLLPVLALGLQPGDIVLDLCAAPGGKTLALLQTGCCRNLAANDLSPSRIARLQKILHSYVPEEIRDGNQVRVTSWDGRKWGELEGDTYDRVLVDVPCTTDRHSLHEEENNIFKRSRKKERQILPVLQVQLLAAGLLATKPGGHVVYSTCSLSHLQNEYVVQGAIELLANQYSIQVQVEDLTHFRRVFMDTFCFFSSCQVGELVIPNLMANFGPMYFCKMRRLT
# partner: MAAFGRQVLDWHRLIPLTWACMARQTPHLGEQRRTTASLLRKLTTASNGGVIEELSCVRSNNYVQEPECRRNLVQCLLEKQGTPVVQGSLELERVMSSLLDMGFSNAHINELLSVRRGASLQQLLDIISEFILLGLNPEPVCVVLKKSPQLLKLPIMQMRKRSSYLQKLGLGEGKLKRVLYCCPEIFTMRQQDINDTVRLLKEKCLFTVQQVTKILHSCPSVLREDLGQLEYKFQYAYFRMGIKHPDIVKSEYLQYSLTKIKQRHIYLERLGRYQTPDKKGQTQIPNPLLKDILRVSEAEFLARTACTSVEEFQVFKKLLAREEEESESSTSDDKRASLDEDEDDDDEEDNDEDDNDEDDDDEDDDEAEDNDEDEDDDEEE
# Variants of: B1
# Details: with mtef4_human MTERF4, Q7Z6M4
row,effect of a mutation on the interaction,Variant
1,disrupting interaction strength,V65R;R136A;I139R;R141A
